What was measured:
[1] = target: type II flavin-containing monooxygenase from Janthinobacterium svalbardensis (Janthinobacterium svalbardensis PAMC27463); assay: SEC; size exclusion chromatography of purified JsFMO, with a calibration curve (Figure S2)
[2] = target: type II flavin-containing monooxygenase from Janthinobacterium svalbardensis (Janthinobacterium svalbardensis PAMC27463); assay: crystal structure; sitting-drop vapor diffusion in the cold room (4-8 °C); 16 mg/mL JsFMO, glycerol 20%, PEG 8000 13%, 100 mM Bis-Tris pH 6.5; four protomers forming two dimers in the asymmetric unit; FAD bound, no NADP+
[3] = substrate: NC(=O)C1=CN([C@@H]2O[C@H](COP(=O)(O)OP(=O)(O)OC[C@H]3O[C@@H](n4cnc5c(N)ncnc54)[C@H](O)[C@@H]3O)[C@@H](O)[C@H]2O)C=CC1; assay: purified protein; format: biochemical, Janthinobacterium svalbardense; conditions: 100 mM Tris-HCl pH 7.5, 500 mM NaCl, 10% glycerol, 1 mM DTT, 5 μM FAD, room temperature, co-substrate concentration not given
[4] = substrate: NC(=O)C1=CN([C@@H]2O[C@H](COP(=O)(O)OP(=O)(O)OC[C@H]3O[C@@H](n4cnc5c(N)ncnc54)[C@H](OP(=O)(O)O)[C@@H]3O)[C@@H](O)[C@H]2O)C=CC1; assay: purified protein; format: biochemical, Janthinobacterium svalbardense; conditions: 100 mM Tris-HCl pH 7.5, 500 mM NaCl, 10% glycerol, 1 mM DTT, 5 μM FAD, room temperature, co-substrate concentration not given
[5] = substrate: O=C1CC2C=CCC12; assay: purified protein; format: biochemical, Janthinobacterium svalbardense; conditions: 0.25 mM NADPH, 0.25-20 mM 1a, 100 mM Tris-HCl pH 7.5, 500 mM NaCl, 10% glycerol, 1 mM DTT, 5 μM FAD, room temperature

stoichiometry N [1] | stoichiometry N [2] | Molecule | Km [3] | kcat [3] | Km [4] | kcat [4] | Km [5] | kcat [5]
2 | 2 | type II flavin-containing monooxygenase from Janthinobacterium svalbardensis (enzyme) | – | – | – | – | – | –
– | – | JsFMO (Janthinobacterium svalbardense) (protein, full-length, codon-optimized in pET-28a(+)-TEV, E. coli ArcticExpress (DE3), C-terminal His-tag (stated for crystal structure); homodimer; SnoaL-like N-terminal domain, C-terminal helix residues 567-586) MQTDSNPHDLAVAGILEQLEGCLRASDSTGAAQLFEPDGYWRDLVLFTWNLKTLEGREQIAAMLAAQLGAVQPVSIRIADGEHAVEAGGVLQSWITVETNVARGVGFIRIRDGKIWTLLTTMSELKGFEEAKGGRRPMGAEHGARTDRSSWLEQREQEAKELGYARQPYCVIIGGGQGGIALGARLRQLNVPTIIIEKNARPGDSWRKRYKSLCLHDPVWYDHMPYIPFPDNWPVFTPKDKVGDWLEMYTKVMELNYWGSTSCESASFDAASGEWTVQVLRDGQPVTLKPKQLVLATGMSGKANMPKFKGMDVFQGEQQHSSQHPGPDAYAGKKVVVVGANNSAHDICAALWEAGVDVTMVQRSSTHIVKSDSLMDLALGDLYSERALAAGMTTNKADLTFASIPYKILANFQKPVFKAIRERDADFYARLEERGFMLDFGDDDSGLFMKYLRRGSGYYIDVGASELVAEGKIKLKSGVGVQELKSHSIVLSDGTELPADLVVYATGYGSMNGWAADLISPEVANKVGKVWGLGSATTKDPGPWEGEQRNMWKPTQQQALWFHGGNLHQSRHYSQYLSLQLKARMEGLNTPVYGQQEVHHLS | 78.5 ± 7.5 µM | 0.23 ± 0.1 s^–1 | 14.4 ± 2.5 µM | 0.21 ± 0.1 s^–1 | 1.05 ± 0.23 mM | 0.29 ± 0.01 s^–1

From publication PMC10028610, “A Cold-Active Flavin-Dependent Monooxygenase from Janthinobacterium svalbardensis Unlocks Applications of Baeyer–Villiger Monooxygenases at Low Temperature” (ACS Catalysis, 2023)
